Sequences and labels used below:
B1: DNA-Binding protein, P69542 (parent)
chain: MIKVEIKPSQAQFTTRSGVSRQGKPYSLNEQLCYVDLGNEYPVLVKITLDEGQPAYAPGLYTVHLSSFKVGQFGSLMIDRLRLVPAK

In the series the parent is B1. To be noted: Enterobacteria phage fd; pH 7; 25 °C; GdnHCl; CD; MOPS 50 mM; NaCl 100 mM; reversible: yes; structure 1VQB; whole UniProt chain shown.
MIKVEIKPSQAQFTTRSGVSRQGKPYSLNFQLCYVDLGNEYPVLVKITLDEGQPAYAPGLYTVHLSSFKVGQFGSLMIDRLRLVPVK [E30F A86V]: the unfolding free energy was 8.58 kJ/mol. The same measure, in the same setting: the figure for MIKVEIKPSQAQFTTRSGVSRQGKPYSLNFQLCYVDLGNEYPVLVKITLDEGQPAYAPGLYTVHLSSFKVGQFGSLMIDRLRLVPTK [E30F A86T] is 4.9 kJ/mol. Take MIKVEIKPSQAQFTTRSGVSRQGKPYSVNEQLCYVDLGNEYPVLVKITLDEGQPAYAPGLYTVHLSSFKVGQFGSLMIDRLRLVPAK [L28V]: the “ddG of mutation (higher = less stable)” value was -4.6 kJ/mol.

For MIKVEIKPSQAQFTTRSGVSRQGKPYSLNEQLCYMDLGNEYPVLVKITLDEGQPAYAPGLYTVHLSSFKVGQFGSLMIDRLRLVPAK [V35M], the “ddG of mutation (higher = less stable)” value stood at 4.6 kJ/mol. Same read-out and setting: for MIKVEIKPSQAQFTTRSGVSRQGKPYSLNEQLCYADLGNEYPVLVKITLDEGQPAYAPGLYTVHLSSFKVGQFGSLMIDRLRLVPAK [V35A] the value was 9.2 kJ/mol; for MIKVEIKPSQAQFTTRSGVSRQGKPYSLNEQLCYIDLGNEYPVLVKITLDEGQPAYAPGLYTVHLSSFKVGQFGSLMIDRLRLVPAK [V35I], 2.93 kJ/mol; for MIKVEIKPSQAQFTTRSGVSRQGKPYSLNEQLCYLDLGNEYPVLVKITLDEGQPAYAPGLYTVHLSSFKVGQFGSLMIDRLRLVPAK [V35L], 11.3 kJ/mol. As to MIKVEIKPSQAQFTTRSGVSRQGKPYSLNEQLCYCDLGNEYPVLVKITLDEGQPAYAPGLYTVHLSSFKVGQFGSLMIDRLRLVPAK [V35C], the “ddG of mutation (higher = less stable)” value stood at 5.86 kJ/mol. As to MIKVEIKPSQAQFTTRSGVSRQGKPYSLNFQLCYVDLGNEYPVLVKITLDEGQPAYAPGLYTVHLSSFKVGQFGSLMIDRLRLVPAK [E30F], the “ddG of mutation (higher = less stable)” value was -8.37 kJ/mol. Same read-out and setting: the figure for MIKVEIKPSQAQFTTRSGVSRQGKPYSLNEQLCYVDLGNEYPVLVKITLDEGQPAYAPGLYTVHLSSFKVGQWGSLMIDRLRLVPAK [F73W] is -3.35 kJ/mol; for MIKVEIKPSQAQFTTRSGVSRQGKPYSLNEQLCYVDLGNEYPVLCKITLDEGQPAYAPGLYTVHLSSFKVGQFGSLMIDRLRLVPAK [V45C] it is 0.418 kJ/mol. Turning to MIKVEIKPSQAQFTTRSGVSRQGKPYSLNEQLCYVDLGNEYPVLVKITLDEGQPAYAPGLYTVCLSSFKVGQFGSLMIDRLRLVPAK [H64C], the “ddG of mutation (higher = less stable)” value was -2.09 kJ/mol. On the same count and under the same terms, the figure for MIKVEIKPSQAQFTTRSGVSRQGKPYSLNEQYCYVDLGNEYPVLVKITLDEGQPAYAPGLYTVHLSSFKVGQFGSLMIDRLRLVPAK [L32Y] is -4.18 kJ/mol. With MIKVEVKPSQAQFTTRSGVSRQGKPYSLNEQLCYVDLGNEYPVLVKITLDEGQPAYAPGLYTVHLSSFKVGQFGSLIIDRLRLVPAK [I6V M77I], the unfolding free energy came out at 1.42 kJ/mol.

For MIKVEIKPSQAQFTTRSGVSRQGKPYSLNEQLCYVDLGNEYPVLVKITLDEGQPAYAPGLYTVHLSSFKVGQFGSLMIDRLCLVPAK [R82C], the “ddG of mutation (higher = less stable)” value came to 6.28 kJ/mol. For MIKVEVKPSQAQFTTRSGVSRQGKPYSLNFQLCYVDLGNEYPVLVKITLDEGQPAYAPGLYTVHLSSFKVGQFGSLMIDRLRLVPAK [I6V E30F], the unfolding free energy came to 2.97 kJ/mol. For MIKVEIKPSQAQFTTRSGVSRQGKPYSLNEQYCYVDLGNEYPVLVKITLDEGQPAYAPGLYTVHLSSFKVGQFGSLMIDRLCLVPAK [L32Y R82C], the unfolding free energy came out at 0.628 kJ/mol. In the case of MIKVEIKPSQAQFTTRSGVSRQGKPYSLNEQLCYVDLGNEYPVLVKMTLDEGQPAYAPGLYTVHLSSFKVGQFGSLMIDRLRLVPAK [I47M], the “ddG of mutation (higher = less stable)” value was found to be 9.2 kJ/mol. As to MIKVEIKPSQAQFTTRSGVSRQGKPYSLNEQLCYVDLGNEYPVLVKFTLDEGQPAYAPGLYTVHLSSFKVGQFGSLMIDRLRLVPAK [I47F], the “ddG of mutation (higher = less stable)” value worked out at 8.37 kJ/mol. Same read-out and setting: the figure for MIKVEIKPSQAQFTTRSGVSRQGKPYSLNEQLCYVDLGNEYPVLVKVTLDEGQPAYAPGLYTVHLSSFKVGQFGSLMIDRLRLVPAK [I47V] is 10.9 kJ/mol; for MIKVEIKPSQAQFTTRSGVSRQGKPYSLNEQLCYVDLGNEYPVLVKLTLDEGQPAYAPGLYTVHLSSFKVGQFGSLMIDRLRLVPAK [I47L] it is 2.93 kJ/mol. Turning to MIKVEIKPSQAQTTTRSGVSRQGKPYSLNFQLCYVDLGNEYPVLVKITLDEGQPAYAPGLYTVHLSSFKVGQFGSLMIDRLRLVPAK [F13T E30F], the unfolding free energy worked out at 6.65 kJ/mol. Consider MIKVEIKPSQAQFTTRSGVSRQGKPYSLNEQLCYVDLGNEYPVLVKITLDEGQPAYAPGLYTVHLSSFKVGQFGSLMIDRLRLVPVK [A86V], for which the “ddG of mutation (higher = less stable)” value is -2.09 kJ/mol.

Consider MIKVEIKPSQAQFTTRSGVSRQGKPYSLNEQLCYVDLGNEYPVLVKITLDEGQPAYAPGLYTVHLSSFKVGQFGSLMIDRLRLVPTK [A86T], for which the “ddG of mutation (higher = less stable)” value is 2.93 kJ/mol. On the same count and under the same terms, the figure for MIKVEIKPSQAQTTTRSGVSRQGKPYSLNEQLCYVDLGNEYPVLVKITLDEGQPAYAPGLYTVHLSSFKVGQFGSLMIDRLRLVPAK [F13T] is 2.93 kJ/mol; for MIKVEIKPSQAQFTTRSGVSRQGKPYSLNEQLCYVDLGNEYPVLVKITLDEGQPAYAPGLYTVHLSSLKVGQFGSLMIDRLRLVPAK [F68L] it is 18 kJ/mol; for MIKVEIKPSQAQFTTRSGVSRQGKPYSLNEQLMYVDLGNEYPVLVKITLDEGQPAYAPGLYTVHLSSFKVGQFGSLMIDRLRLVPAK [C33M] it is 14.6 kJ/mol. For MIKVEIKPSQAQFTTRSGVSRQGKPYSLNEQLVYVDLGNEYPVLVKITLDEGQPAYAPGLYTVHLSSFKVGQFGSLMIDRLRLVPAK [C33V], the “ddG of mutation (higher = less stable)” value worked out at 0.837 kJ/mol.

The record behind these values is FireProtDB (doi:10.1073/pnas.90.18.8367).
